Source: the RNAGym collection of RNA variant scans (doi:10.1093/molbev/msab373)

B1: Azoarcus group I ribozyme (parent)
chain: GUGCCUUGCGCCGGGAAACCACGCAAGGGAUGGUGUCAAAUUCGGCGAAACCUAAGCGCCCGCCCGGGCGUAUGGCAACGCCGAGCCAAGCUUCGGCGCCUGCGCCGAUGAAGGUGUAGAGACUAGACGGCACCCACCUAAGGCAAACGCUAUGGUGAAGGCAUAGUCCAGGGAGUGGCGAAAGUCACACAAACCGG

Variants of: B1
Test: reverse-splicing fitness (ratio to wild type); higher = more active; in vitro selection; Mg2+ level not given
Summary of the method: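 An in vitro group I ribozyme library with randomized positions was T7-transcribed and gel-purified. In triplicate, 10 pmol RNA in EPPS pH 7.5 was reacted with 50 pmoles of a 30-nt RNA substrate for 1 h at 37 °C across several added MgCl2 levels (1–48 mM), then stopped with EDTA. Products were reverse transcribed from a substrate-complementary primer, PCR-amplified and sequenced (HiSeq 4000). Fitness is a variant's read proportion after selection over that before, normalised to wild type.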

Point of comparison: C82G A111C A120G A145U C150A C169U U176G, reverse-splicing fitness 0.00547. Against it:
- C82G A111C A120U A145C C150G U176C — lower, 0.00457
- C82G A111C A120U A145C C150G U176A — lower, 0.00364
- C82G A111C A120U A145C C150G U176G — lower, 0.00221
- C82G A111C A120G C169U — higher, 0.00963
- C82G A111C A120G C169G — higher, 0.0132
- C82G A111C A120G C169A — higher, 0.0107
- C82G A111C A120G A145U C150U C169U U176A — higher, 0.0143
- C82G A111C A120G A145U C150U C169U U176C — higher, 0.0139
- C82G A111C A120G A145U C150U C169U U176G — lower, 0.00531
- C82G A111C A120U A145C C150A C169G U176C — lower, 0.00286
- C82G A111C A120U A145C C150A C169G U176A — lower, 0.00319
- C82G A111C A120U A145C C150A C169G U176G — lower, 0.00223
- C82G A111C A120G A145U C150A C169U U176C — higher, 0.0124
- C82G A111C A120G A145U C150A C169U U176A — higher, 0.0169
- C82G A111C A120G A145C C150A C169U U176G — lower, 0.0047
- C82G A111C A120G A145C C150A C169U U176A — higher, 0.0151
- C82G A111C A120G A145C C150A C169U U176C — higher, 0.00999
- C82G A111C A120C C169A U176C — higher, 0.0194
- C82G A111C A120C C169A U176G — higher, 0.0072
- C82G A111C A120C C169A U176A — higher, 0.0156
- C82G A111C A120G C150U C169A U176G — higher, 0.00607
- C82G A111C A120G C150U C169A U176C — higher, 0.0135
- C82G A111C A120G C150U C169A U176A — higher, 0.0141
- C82G A111C A120C C150U — higher, 0.0277
- C82G A111C A120G A145C C150A C169G U176G — lower, 0.00529
- C82G A111C A120G A145C C150A C169G U176A — higher, 0.0248
- C82G A111C A120G A145C C150A C169G U176C — higher, 0.0158
- C82G A111C A120G A145U C150U U176G — higher, 0.00613
- C82G A111C A120G A145U C150U U176A — higher, 0.0115
- C82G A111C A120G A145U C150U U176C — higher, 0.0179
- C82G A111C A120G A145U C150G C169U U176A — higher, 0.00847
- C82G A111C A120G A145U C150G C169U U176G — lower, 0.00536
- C82G A111C A120G A145U C150G C169U U176C — higher, 0.0118
- C82G A111C A120C C150G C169G U176A — higher, 0.00891
- C82G A111C A120C C150G C169G U176C — higher, 0.00766
- C82G A111C A120C C150G C169G U176G — higher, 0.00663
- C82G A111C A120G C150G C169G U176A — higher, 0.00677
- C82G A111C A120G C150G C169G U176G — lower, 0.00467
- C82G A111C A120G C150G C169G U176C — lower, 0.00508
- C82G A111C A120G A145G C150A C169A U176G — higher, 0.00723
- C82G A111C A120G A145G C150A C169A U176A — higher, 0.0181
- C82G A111C A120G A145G C150A C169A U176C — higher, 0.0198
- C82G A111C A120G A145G C150U C169G U176G — lower, 0.00501
- C82G A111C A120G A145G C150U C169G U176A — higher, 0.0133
- C82G A111C A120G A145G C150U C169G U176C — higher, 0.0175
- C82G A111C A120G A145U C150G C169A U176C — higher, 0.0101
- C82G A111C A120G A145U C150G C169A U176A — higher, 0.00957
- C82G A111C A120G A145U C150G C169A U176G — lower, 0.00496
- C82G A111C A120G A145C C150G C169A U176C — higher, 0.00738
- C82G A111C A120G A145C C150G C169A U176G — lower, 0.005
- C82G A111C A120G A145C C150G C169A U176A — higher, 0.00812
- C82G A111C A120G C169G U176C — higher, 0.0224
- C82G A111C A120G C169G U176G — lower, 0.0044
- C82G A111C A120G C169G U176A — higher, 0.0184
- C82G A111C A120U A145C C150G C169G U176C — lower, 0.00245
- C82G A111C A120U A145C C150G C169G U176A — lower, 0.00317
- C82G A111C A120U A145C C150G C169G U176G — lower, 0.00233
- C82G A111C A120G A145C C169G U176G — lower, 0.00429
- C82G A111C A120G A145C C169G U176C — higher, 0.0171
- C82G A111C A120G A145C C169G U176A — higher, 0.0233
- C82G A111C A120G A145U C150A C169U — higher, 0.00666
- C82G A111C A120G A145U C150A C169A — higher, 0.00884
- C82G A111C A120G A145U C150A C169G — higher, 0.00764
- C82G A111C A120C C150G C169U U176C — higher, 0.0107
- C82G A111C A120C C150G C169U U176G — higher, 0.00751
- C82G A111C A120C C150G C169U U176A — higher, 0.00786
- C82G A111C A120G A145G C150G U176A — higher, 0.00732
- C82G A111C A120G A145G C150G U176C — higher, 0.0113
- C82G A111C A120G A145G C150G U176G — higher, 0.00597
- C82G A111C A120G A145C C150U U176C — higher, 0.0125
- C82G A111C A120G A145C C150U U176G — lower, 0.00478
- C82G A111C A120G A145C C150U U176A — higher, 0.0103
- C82G A111C A120C C150U C169U U176G — higher, 0.00857
- C82G A111C A120C C150U C169U U176C — higher, 0.0142
- C82G A111C A120C C150U C169U U176A — higher, 0.0158
- C82G A111C A120C C169U — higher, 0.0148
- C82G A111C A120C C169A — higher, 0.00716
- C82G A111C A120C C169G — higher, 0.00886
- C82G A111C A120U A145C C150A C169A U176G — lower, 0.00281
- C82G A111C A120U A145C C150A C169A U176A — lower, 0.00209
- C82G A111C A120U A145C C150A C169A U176C — lower, 0.00225
- C82G A111C A120G A145U C150U C169A — higher, 0.0101
- C82G A111C A120G A145U C150U C169U — higher, 0.00896
